This assay has as its target T1, human MAdCAM (human, UniProt Q13477 19-317, limits assumed).
T1 construct: also called huMAdCAM; human MAdCAM-1
T1 sequence (looked up): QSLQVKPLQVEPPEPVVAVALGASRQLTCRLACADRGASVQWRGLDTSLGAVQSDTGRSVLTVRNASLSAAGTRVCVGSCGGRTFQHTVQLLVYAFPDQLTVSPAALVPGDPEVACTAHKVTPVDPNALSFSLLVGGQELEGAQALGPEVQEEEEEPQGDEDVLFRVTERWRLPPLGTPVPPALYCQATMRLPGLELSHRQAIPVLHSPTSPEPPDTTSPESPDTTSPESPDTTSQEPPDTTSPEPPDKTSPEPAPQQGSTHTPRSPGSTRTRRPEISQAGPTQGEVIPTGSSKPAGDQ
Kind of assay: BLI (Octet), binder on AHC tips. The essentials: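 Kinetic rates and the dissociation constant come from a global one-to-one fit, performed in the Octet data analysis software, of binding measured on an Octet96 RED with anti-human IgG Fc biosensors. Test article at 10 μg/mL in assay buffer was captured on the tips for 240 s. MAdCAM-1, serially diluted over seven points from 200 nM down to 3.13 nM, then associated for 120 s before 120 s of dissociation in assay buffer.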
(In BLI a coated tip is dipped into the sample, and binding shifts an interference pattern.)

The values below come from patent publication US20240010722A1 (published 2024).

B1: PMAB2 (bispecific antibody, human IgG1, kappa)
heavy: EVQLLESGGGLVQPGGSLRLSCAASGFTFSNSDMSWVRQAPGKGLEWVSGITISGGSTYYADSVKGRFTISRDNSKNTLYLQMNSLRAEDTAVYYCARGRGGSGWLDYWGQGTLVTVSSASTKGPSVFPLAPSSKSTSGGTAALGCLVKDYFPEPVTVSWNSGALTSGVHTFPAVLQSSGLYSLSSVVTVPSSSLGTQTYICNVNHKPSNTKVDKKVEPKSCDKTHTCPPCPAPEAAGAPSVFLFPPKPKDTLMISRTPEVTCVVVDVSHEDPEVKFNWYVDGVEVHNAKTKPREEQYNSTYRVVSVLTVLHQDWLNGKEYKCKVSNKALPAPIEKTISKAKGQPREPQVYTLPPSREEMTKNQVSLTCLVKGFYPSDIAVEWESNGQPENNYKTTPPVLDSDGSFFLYSKLTVDKSRWQQGNVFSCSVMHEALHNHYTQKSLSLSPGGGGGSGGGGSGGGGSEVQLLESGGGLVQPGGSLRLSCAASGFTFSSYWMHWVRQAPGKGLEWVSAISGSSGSTYYADSVKGRFTISRDNSKNTLYLQMNSLRAEDTAVYYCARDRPYGYYMDVWGKGTTVTVSSGGGGSGGGGSGGGGSGGGGSDIQMTQSPSSLSASVGDRVTITCRASQSISSSLAWYQQKPGKAPKLLIYAASSLQSGVPSRFSGSGSGTDFTLTISSLQPEDFATYYCQQYKSYPVTFGQGTKVEIK
light: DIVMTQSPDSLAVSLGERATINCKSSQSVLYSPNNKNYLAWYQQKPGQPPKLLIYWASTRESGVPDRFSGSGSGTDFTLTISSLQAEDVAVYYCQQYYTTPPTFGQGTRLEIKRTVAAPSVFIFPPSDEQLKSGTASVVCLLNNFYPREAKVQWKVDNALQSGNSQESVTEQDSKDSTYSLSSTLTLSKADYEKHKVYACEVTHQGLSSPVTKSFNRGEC
The term Kd denotes the constant that tells how readily two partners part at equilibrium. High values mean weaker binding, low ones tighter binding. By koff is commonly meant the first-order rate constant of dissociation. High values mean a short-lived complex, low ones a long-lived complex. Usually kon stands for a measure of how fast the partners come together. Lower therefore signals slow association. B1: the dissociation constant (Kd) worked out at 175 nM, the off-rate (koff) came out at 0.127 s⁻¹ and the kon amounted to 725000 M⁻¹ s⁻¹.

B2: PMAB6 (bispecific antibody, human IgG1, kappa)
heavy: EVQLLESGGGLVQPGGSLRLSCAASGFTFSNSDMSWVRQAPGKGLEWVSGITISGGSTYYADSVKGRFTISRDNSKNTLYLQMNSLRAEDTAVYYCARGRGGSGWLDYWGQGTLVTVSSASTKGPSVFPLAPSSKSTSGGTAALGCLVKDYFPEPVTVSWNSGALTSGVHTFPAVLQSSGLYSLSSVVTVPSSSLGTQTYICNVNHKPSNTKVDKKVEPKSCDKTHTCPPCPAPEAAGAPSVFLFPPKPKDTLMISRTPEVTCVVVDVSHEDPEVKFNWYVDGVEVHNAKTKPREEQYNSTYRVVSVLTVLHQDWLNGKEYKCKVSNKALPAPIEKTISKAKGQPREPQVYTLPPSREEMTKNQVSLTCLVKGFYPSDIAVEWESNGQPENNYKTTPPVLDSDGSFFLYSKLTVDKSRWQQGNVFSCSVMHEALHNHYTQKSLSLSPGGGGGSGGGGSGGGGSEVQLLESGGGLVQPGGSLRLSCAASGFTFSSYWMHWVRQAPGKGLEWISAISGSGGSTYYADSVKGRFTISRDNSKNTLYLQMNSLRAEDTAVYYCARDRPYGYYMDVWGKGTTVTVSSGGGGSGGGGSGGGGSGGGGSDIQMTQSPSSLSASVGDRVTITCRASQSISSSLAWYQQKPGKAPKLLIYAASSLQSGVPSRFSGSGSGTDFTLTISSLQPEDFATYYCQQYKSYPVTFGQGTKVEIK
light: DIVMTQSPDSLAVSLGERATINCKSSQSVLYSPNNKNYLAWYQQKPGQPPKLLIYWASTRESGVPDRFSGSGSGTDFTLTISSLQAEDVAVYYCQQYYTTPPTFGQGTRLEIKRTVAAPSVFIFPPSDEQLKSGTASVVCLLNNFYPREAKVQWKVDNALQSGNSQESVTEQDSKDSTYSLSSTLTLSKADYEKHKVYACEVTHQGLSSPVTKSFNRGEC
B2 returned an equilibrium dissociation constant (Kd) of 150 nM, a koff of 0.105 s⁻¹ and a kon of 698000 M⁻¹ s⁻¹.

B3: PMAB4 (bispecific antibody, human IgG1, kappa)
heavy: EVQLLESGGGLVQPGGSLRLSCAASGFTFSNSDMSWVRQAPGKGLEWVSGITISGGSTYYADSVKGRFTISRDNSKNTLYLQMNSLRAEDTAVYYCARGRGGSGWLDYWGQGTLVTVSSASTKGPSVFPLAPSSKSTSGGTAALGCLVKDYFPEPVTVSWNSGALTSGVHTFPAVLQSSGLYSLSSVVTVPSSSLGTQTYICNVNHKPSNTKVDKKVEPKSCDKTHTCPPCPAPEAAGAPSVFLFPPKPKDTLMISRTPEVTCVVVDVSHEDPEVKFNWYVDGVEVHNAKTKPREEQYNSTYRVVSVLTVLHQDWLNGKEYKCKVSNKALPAPIEKTISKAKGQPREPQVYTLPPSREEMTKNQVSLTCLVKGFYPSDIAVEWESNGQPENNYKTTPPVLDSDGSFFLYSKLTVDKSRWQQGNVFSCSVMHEALHNHYTQKSLSLSPGGGGGSGGGGSGGGGSEVQLLESGGGLVQPGGSLRLSCAASGFTFSSYWMHWVRQAPGKGLEWVSAISGSSGSTYYADSVKGRFTISRDNSKNTLYLQMNSLRAEDTAVYYCARDRPYGYYMDVWGKGTTVTVSSGGGGSGGGGSGGGGSGGGGSDIQMTQSPSSLSASVGDRVTITCRASQSISRSLAWYQQKPGKAPKLLIYAASSLQSGVPSRFSGSGSGTDFTLTISSLQPEDFATYYCQQYKSYPVTFGQGTKVEIK
light: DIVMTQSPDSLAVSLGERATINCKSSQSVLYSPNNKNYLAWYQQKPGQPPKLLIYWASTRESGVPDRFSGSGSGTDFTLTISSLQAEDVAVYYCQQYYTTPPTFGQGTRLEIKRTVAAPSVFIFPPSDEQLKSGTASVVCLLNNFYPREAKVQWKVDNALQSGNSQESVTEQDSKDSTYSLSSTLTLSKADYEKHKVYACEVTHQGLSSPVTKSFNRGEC
Take B3: the affinity, expressed as Kd, was 41.8 nM; the koff amounted to 0.0547 s⁻¹; the on-rate (kon) was 1.31e+06 M⁻¹ s⁻¹.

B4: PMAB3 (bispecific antibody, human IgG1, kappa)
heavy: EVQLLESGGGLVQPGGSLRLSCAASGFTFSNSDMSWVRQAPGKGLEWVSGITISGGSTYYADSVKGRFTISRDNSKNTLYLQMNSLRAEDTAVYYCARGRGGSGWLDYWGQGTLVTVSSASTKGPSVFPLAPSSKSTSGGTAALGCLVKDYFPEPVTVSWNSGALTSGVHTFPAVLQSSGLYSLSSVVTVPSSSLGTQTYICNVNHKPSNTKVDKKVEPKSCDKTHTCPPCPAPEAAGAPSVFLFPPKPKDTLMISRTPEVTCVVVDVSHEDPEVKFNWYVDGVEVHNAKTKPREEQYNSTYRVVSVLTVLHQDWLNGKEYKCKVSNKALPAPIEKTISKAKGQPREPQVYTLPPSREEMTKNQVSLTCLVKGFYPSDIAVEWESNGQPENNYKTTPPVLDSDGSFFLYSKLTVDKSRWQQGNVFSCSVMHEALHNHYTQKSLSLSPGGGGGSGGGGSGGGGSEVQLLESGGGLVQPGGSLRLSCAASGFTFSSYWMHWVRQAPGKGLEWVSAISGSSGSTYYADSVKGRFTISRDNSKNTLYLQMNSLRAEDTAVYYCARDRPYYYYMDVWGKGTTVTVSSGGGGSGGGGSGGGGSGGGGSDIQMTQSPSSLSASVGDRVTITCRASQSISSSLAWYQQKPGKAPKLLIYAASSLQSGVPSRFSGSGSGTDFTLTISSLQPEDFATYYCQQYKSYPVTFGQGTKVEIK
light: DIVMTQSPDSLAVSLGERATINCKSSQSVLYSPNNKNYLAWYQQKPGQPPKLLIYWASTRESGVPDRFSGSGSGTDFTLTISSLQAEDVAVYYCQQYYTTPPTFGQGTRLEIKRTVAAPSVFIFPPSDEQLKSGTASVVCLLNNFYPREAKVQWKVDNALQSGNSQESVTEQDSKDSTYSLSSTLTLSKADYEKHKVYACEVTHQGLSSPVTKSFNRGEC
Regarding B4, the dissociation constant (Kd) worked out at 333 nM, the koff was determined as 0.239 s⁻¹ and the on-rate constant (kon) came out at 717000 M⁻¹ s⁻¹.

B5: PMAB5 (bispecific antibody, human IgG1, kappa)
heavy: EVQLLESGGGLVQPGGSLRLSCAASGFTFSNSDMSWVRQAPGKGLEWVSGITISGGSTYYADSVKGRFTISRDNSKNTLYLQMNSLRAEDTAVYYCARGRGGSGWLDYWGQGTLVTVSSASTKGPSVFPLAPSSKSTSGGTAALGCLVKDYFPEPVTVSWNSGALTSGVHTFPAVLQSSGLYSLSSVVTVPSSSLGTQTYICNVNHKPSNTKVDKKVEPKSCDKTHTCPPCPAPEAAGAPSVFLFPPKPKDTLMISRTPEVTCVVVDVSHEDPEVKFNWYVDGVEVHNAKTKPREEQYNSTYRVVSVLTVLHQDWLNGKEYKCKVSNKALPAPIEKTISKAKGQPREPQVYTLPPSREEMTKNQVSLTCLVKGFYPSDIAVEWESNGQPENNYKTTPPVLDSDGSFFLYSKLTVDKSRWQQGNVFSCSVMHEALHNHYTQKSLSLSPGGGGGSGGGGSGGGGSEVQLLESGGGLVQPGGSLRLSCAASGFTFSSYWMHWVRQAPGKGLEWVSAISGSSGSTYYADSVKGRFTISRDNSKNTLYLQMNSLRAEDTAVYYCARDRPYYYYMDVWGKGTTVTVSSGGGGSGGGGSGGGGSGGGGSDIQMTQSPSSLSASVGDRVTITCRASQSISRSLAWYQQKPGKAPKLLIYAASSLQSGVPSRFSGSGSGTDFTLTISSLQPEDFATYYCQQYKSYPVTFGQGTKVEIK
light: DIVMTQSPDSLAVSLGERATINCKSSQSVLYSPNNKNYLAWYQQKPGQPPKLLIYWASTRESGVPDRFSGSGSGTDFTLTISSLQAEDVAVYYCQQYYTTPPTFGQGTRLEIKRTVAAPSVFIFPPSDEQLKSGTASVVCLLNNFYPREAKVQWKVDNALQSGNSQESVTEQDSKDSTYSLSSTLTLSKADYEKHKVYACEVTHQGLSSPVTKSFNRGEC
Turning to B5, the affinity, expressed as Kd, was 413 nM; the off-rate (koff) came out at 0.12 s⁻¹; the on-rate constant (kon) was determined as 290000 M⁻¹ s⁻¹.
